Numbering of substitutions follows the chain as printed. In names and notes the source's numbering stands. Each block holds one binder with its values, some of them ahead of it.
What was measured:
[1] = target: T1, Apple (Mal d 1, MyBiosource, Cat #MBS1224919) (Apple, UniProt P43211 2-159, limits assumed); experiment: SPR Biacore, 25C;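 note: binding of related allergens to purified monoclonal anti-Bet v 1 antibodies by surface plasmon resonance in HEPES-buffered saline pH 7.4, kinetics fitted to a 1:1 model with mass transport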
T1 construct: Bought reagent
T1 sequence (looked up): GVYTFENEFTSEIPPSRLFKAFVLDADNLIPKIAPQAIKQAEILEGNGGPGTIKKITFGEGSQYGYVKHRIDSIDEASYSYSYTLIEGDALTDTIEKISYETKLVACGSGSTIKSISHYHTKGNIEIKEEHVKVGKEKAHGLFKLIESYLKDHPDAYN

[2] = target: T2, Celery (Api g 1, MyBiosource, Cat #MBS1171376) (Celery, UniProt P49372 1-154, limits assumed); experiment: SPR Biacore, 25C;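 note: binding of related allergens to purified monoclonal anti-Bet v 1 antibodies by surface plasmon resonance in HEPES-buffered saline pH 7.4, kinetics fitted to a 1:1 model with mass transport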
T2 construct: Bought reagent
T2 sequence (looked up): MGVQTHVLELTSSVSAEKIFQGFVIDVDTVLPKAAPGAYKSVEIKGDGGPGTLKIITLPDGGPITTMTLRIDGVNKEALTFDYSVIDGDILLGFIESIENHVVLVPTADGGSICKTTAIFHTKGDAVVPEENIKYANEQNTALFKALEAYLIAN

[3] = target: T3, European Hornbeam (Car b 1 isoform 1A & 1B, MyBiosource, Cat #MBS1200018) (European Hornbeam, UniProt P38949 2-160); experiment: SPR Biacore, 25C;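 note: binding of related allergens to purified monoclonal anti-Bet v 1 antibodies by surface plasmon resonance in HEPES-buffered saline pH 7.4, kinetics fitted to a 1:1 model with mass transport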
T3 construct: Bought reagent
T3 sequence (looked up): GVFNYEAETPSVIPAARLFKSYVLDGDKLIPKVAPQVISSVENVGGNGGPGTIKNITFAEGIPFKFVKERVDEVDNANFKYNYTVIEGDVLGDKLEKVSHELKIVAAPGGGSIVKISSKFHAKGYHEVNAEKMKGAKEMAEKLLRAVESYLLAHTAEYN

[4] = target: T4, natural Bet v 1 (Indoor, Cat #NA-BV1-1) (Betula verrucosa (European white birch, …, UniProt P15494 2-160)); experiment: SPR Biacore, mAb captured on anti-hFc, 25C;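 note: rate constants from sensorgrams fitted to a 1:1 model with mass transport limitation, KD and t½ derived from kinetic constants, run in HBS-ET buffer at pH 7.4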
T4 construct: Bought natural protein purified from birch pollen; also called nBet v 1
T4 sequence: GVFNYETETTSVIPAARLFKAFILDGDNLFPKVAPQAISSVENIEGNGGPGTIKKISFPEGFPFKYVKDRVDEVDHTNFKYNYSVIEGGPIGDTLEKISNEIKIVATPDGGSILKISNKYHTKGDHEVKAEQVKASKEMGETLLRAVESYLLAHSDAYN

mutant Bet v 1-MMH [5] = target: T5, mutant Bet v 1-MMH (Betula verrucosa (European white birch, …)); experiment: BLI Octet HTX, mutant Bet v 1-MMH captured on anti-Penta-His tips, 25C
T5 construct: also called CHO produced recombinant Bet v 1 containing a S85A mutation with a C-terminal myc-myc hexahistidine tag
T5 chain: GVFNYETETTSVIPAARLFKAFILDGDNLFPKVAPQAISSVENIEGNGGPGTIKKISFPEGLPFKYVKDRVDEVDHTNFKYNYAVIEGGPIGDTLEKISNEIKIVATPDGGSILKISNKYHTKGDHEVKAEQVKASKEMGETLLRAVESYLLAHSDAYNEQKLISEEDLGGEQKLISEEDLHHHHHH

[6] = target: T4, natural Bet v 1 (Indoor, Cat #NA-BV1-1); experiment: SPR Biacore, mAb captured on anti-hFc, 37C;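 note: purified anti-Bet v 1 monoclonal antibodies, HBS-ET running buffer pH 7.4, rate constants from 1:1 model fit with mass transport limitation, KD and t½ calculated from kinetic constants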
mutant Bet v 1-MMH [7] = target: T6, mutant Bet v 1-MMH (Betula verrucosa (Betula pendula)); experiment: BLI Octet, mutant Bet v 1-MMH captured on anti-Penta-His tips
T6 construct: CHO produced; also called recombinant mutant Bet v 1 with C-terminal myc-myc-hexahistidine tag
T6 chain: T5 chain

natural Bet v 1 [8] = target: T7, natural Bet v 1 (Betula verrucosa (Betula pendula), UniProt P15494 2-160); experiment: blocking ELISA, biotin nBet v 1 to captured IgE, donor 23658-MD
T7 construct: bought natural protein (Indoor Biotechnologies #NA-BV1-1); also called nBet v 1; Biotinylated Bet v 1
T7 chain: T4 sequence with F62L

natural Bet v 1 [9] = target: T7, natural Bet v 1; experiment: blocking ELISA, biotin nBet v 1 to captured IgE, donor 23939-MH
natural Bet v 1 [10] = target: T7, natural Bet v 1; experiment: dose-response blocking ELISA, biotin nBet v 1 to captured IgE, donor 25340-RR
natural Bet v 1 [11] = target: T7, natural Bet v 1; experiment: dose-response blocking ELISA, biotin nBet v 1 to captured IgE, donor 25609-MS
natural Bet v 1 [12] = target: T7, natural Bet v 1; experiment: blocking ELISA, biotin nBet v 1 to captured IgE, donor 25609-MS
natural Bet v 1 [13] = target: T7, natural Bet v 1; experiment: dose-response blocking ELISA, biotin nBet v 1 to captured IgE, donor 23939-MH
natural Bet v 1 [14] = target: T7, natural Bet v 1; experiment: blocking ELISA, biotin nBet v 1 to captured IgE, donor 25340-RR
natural Bet v 1 [15] = target: T7, natural Bet v 1; experiment: blocking ELISA, biotin nBet v 1 to captured IgE, donor 22627-MN
natural Bet v 1 [16] = target: T7, natural Bet v 1; experiment: blocking ELISA, biotin nBet v 1 to captured IgE, donor 29718-MW
natural Bet v 1 [17] = target: T7, natural Bet v 1; experiment: blocking ELISA, biotin nBet v 1 to captured IgE, donor 26532-CC
natural Bet v 1 [18] = target: T7, natural Bet v 1; experiment: blocking ELISA, biotin nBet v 1 to captured IgE, donor 23035-BL
natural Bet v 1 [19] = target: T7, natural Bet v 1; experiment: blocking ELISA, biotin nBet v 1 to captured IgE, donor 25299-RJ
natural Bet v 1 [20] = target: T7, natural Bet v 1; experiment: blocking ELISA, biotin nBet v 1 to captured IgE, donor 25414-CW
[21] = target: T8, Alder (Aln g 1, MyBiosource, Cat #MBS1041484) (Alder, UniProt P38948 2-160, limits assumed); experiment: SPR Biacore, 25C;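 note: binding of related allergens to purified monoclonal anti-Bet v 1 antibodies by surface plasmon resonance in HEPES-buffered saline pH 7.4, kinetics fitted to a 1:1 model with mass transport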
T8 construct: Bought reagent
T8 sequence (looked up): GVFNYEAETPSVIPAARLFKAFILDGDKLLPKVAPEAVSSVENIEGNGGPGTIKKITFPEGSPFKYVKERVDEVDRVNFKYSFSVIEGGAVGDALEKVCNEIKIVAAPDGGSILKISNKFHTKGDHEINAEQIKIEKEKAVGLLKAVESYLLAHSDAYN

[22] = target: T4, natural Bet v 1 (Indoor, Cat #NA-BV1-1); experiment: cell-based or functional assay

B2: H4H17001P (antibody, human IgG4, V domains shown)
VH: QVQLVESGGGLVKPGGSLRLSCAASGFTFSDYYMNWIRQAPGKGLEWISLISSSGSAIYYSDSVKGRFTISRDNARKSLYLQVNSLRAEDTAVYYCARDRGEWALGAYYYGLDVWGQGTTVTVSS
VL: DIVMTQSPLSLPVTPGEPASISCRSSQSLLHSDGYNYLDWYLQKSGQSPQLLIYLGSNRASGVPDRFSGSGSGTDFTLKISRMEAEDVGVYYCMQALQTPYTFGQGTKLEIK
notes: human IgG4 Fc (H4H prefix)
binding result (mutant Bet v 1-MMH [7]): no binding (tested: 50 µg/mL)

B3: H4H16987P (antibody, human IgG4 S228P, kappa, V domains shown)
VH: EVQLVESGGGLVQPGGSLRLSCAASGFTVSSNSMSWVRQAPGEGLEWVSVIFSGGITYYSDSVKGRFTISRHNSKNTLYLQMNSLRTEDTAVYYCARHSNWNFDAFDIWGQGTMVTVSS
VL: DIQMTQSPSSLSASVGDRVTITCRASQSFDTYLNWYQQKPGKAPNLLIYATSSLQSGVPSRFSGSGSGTDFTLTISSLQPEDFGTYYCQQSYSIPYTFGQGTKLEIKR
notes: fully human, human IgG4 Fc (H4H prefix); also called MAB4
Percent Blocking (at 1 µg/mL each antibody) (natural Bet v 1 [8]): 27%
Percent Blocking (at 1 µg/mL each antibody) (natural Bet v 1 [9]): 16%
Percent Blocking (at 1 µg/mL each antibody) (natural Bet v 1 [10]): 11.1%
Percent Blocking (at 1 µg/mL each antibody) (natural Bet v 1 [11]): 21.6%
Percent Blocking (at 1 µg/mL each antibody) (natural Bet v 1 [12]): 16%
Percent Blocking (at 1 µg/mL each antibody) (natural Bet v 1 [13]): 19.6%
Percent Blocking (at 1 µg/mL each antibody) (natural Bet v 1 [14]): 15%
Percent Blocking (at 1 µg/mL each antibody) (natural Bet v 1 [15]): 12%
Percent Blocking (at 1 µg/mL each antibody) (natural Bet v 1 [16]): 13%
Percent Blocking (at 1 µg/mL each antibody) (natural Bet v 1 [17]): 4%
Percent Blocking (at 1 µg/mL each antibody) (natural Bet v 1 [18]): -46%
Percent Blocking (at 1 µg/mL each antibody) (natural Bet v 1 [19]): 9%
Percent Blocking (at 1 µg/mL each antibody) (natural Bet v 1 [20]): -4%

B5: H4H16943P (antibody, human IgG4, V domains shown)
VH: EVQLVESGGGLVQPGGSLRLSCTASGFMSSMYWMSWVRQAPGKGLEWVSNIKQDGTEKNYVESVKGRFTISRDNAKNSLYLQINSLRGEDTAVYYCARDLYSSSSGYYYYGLDVWGQGTTVTVSS
VL: DIVMTQSPLSLPVTPGEPASISCRSSQSLLHSNKYNYLDWYLQKPGQSPQLLIYLSSNRASGVPDRFSGSGSGTEFTLKISRVEAEDVGIYYCMQALHTPLTFGGGTKVEIK
notes: human IgG4 Fc (H4H prefix)
binding result (mutant Bet v 1-MMH [7]): no binding (tested: 50 µg/mL)

B7: H4H17082P2 (antibody, human IgG4 S228P, kappa, V domains shown)
VH: QVQLVQSGAEVKKPGASVKVSCKASGYTFISYNIFWVRQATGQGLDWMGWMNPFRNNAGYAQKFQGRVTVTWDTSISTAYMELSSLSSEDTAIYYCAREHGSSWGFFDYWGQGTLVTVSS
VL: not shown
notes: fully human, human IgG4 Fc (H4H prefix); also called MAB2; REGN5715
Percent Blocking (at 1 µg/mL each antibody) (natural Bet v 1 [9]): 79%
Percent Blocking (at 1 µg/mL each antibody) (natural Bet v 1 [10]): 82.7%
Percent Blocking (at 1 µg/mL each antibody) (natural Bet v 1 [11]): 56.4%
Percent Blocking (at 1 µg/mL each antibody) (natural Bet v 1 [12]): 51%
Percent Blocking (at 1 µg/mL each antibody) (natural Bet v 1 [13]): 82.9%
Percent Blocking (at 1 µg/mL each antibody) (natural Bet v 1 [14]): 81%
Percent Blocking (at 1 µg/mL each antibody) (natural Bet v 1 [16]): 49%
Percent Blocking (at 1 µg/mL each antibody) (natural Bet v 1 [17]): 74%
Percent Blocking (at 1 µg/mL each antibody) (natural Bet v 1 [18]): 52%
Percent Blocking (at 1 µg/mL each antibody) (natural Bet v 1 [19]): 66%
Percent Blocking (at 1 µg/mL each antibody) (natural Bet v 1 [20]): 38%

The remaining lines, values ahead:

binding result [1]: no binding (tested: 100 nM)
binding result [2]: no binding (tested: 100 nM)
binding result [3]: no binding (tested: 100 nM)
100 nM natural Bet v 1 Bound (RU) [4]: 71 RU
Kd [4]: 1 nM
koff [4]: 0.000329 s⁻¹
kon [4]: 329000 M⁻¹ s⁻¹
t½ [4]: 35 min
binding result (mutant Bet v 1-MMH [5]): no binding (tested: 50 µg/mL)
100 nM natural Bet v 1 Bound (RU) [6]: 87 RU
Kd [6]: 2.52 nM
koff [6]: 0.00122 s⁻¹
kon [6]: 485000 M⁻¹ s⁻¹
t½ [6]: 9.5 min
B1: H4H17001P (antibody, human IgG4, V domains shown)
VH: B2 VH
VL: B2 VL

binding result [1]: no binding (tested: 100 nM)
binding result [2]: no binding (tested: 100 nM)
binding result [21]: no binding (tested: 100 nM)
100 nM natural Bet v 1 Bound (RU) [4]: 71 RU
Kd [4]: 1.4 nM
koff [4]: 0.00023 s⁻¹
kon [4]: 164000 M⁻¹ s⁻¹
t½ [4]: 50 min
binding result (mutant Bet v 1-MMH [5]): no binding (tested: 50 µg/mL)
100 nM natural Bet v 1 Bound (RU) [6]: 88 RU
Kd [6]: 4.89 nM
koff [6]: 0.00127 s⁻¹
kon [6]: 260000 M⁻¹ s⁻¹
t½ [6]: 9.1 min
B4: H4H16943P (antibody, human IgG4, V domains shown)
VH: B5 VH
VL: B5 VL

100 nM natural Bet v 1 Bound (RU) [4]: 72 RU
Kd [4]: 1.09 nM
blockade of basophil activation (phospho-Erk MFI in basophils of PBMCs of birch allergic donors, 100 pM natural Bet v 1) [22]: 70%
100 nM natural Bet v 1 Bound (RU) [6]: 83 RU
Kd [6]: 2.43 nM
t½ [6]: 6.3 min
B6: H4H17082P2 (antibody, human IgG4 S228P, kappa, V domains shown)
VH: B7 VH
VL: not shown
notes: human IgG4; also called REGN5715; MAB2

— patent US20240083986A1 (published 2024)
